In PMC7337493 (The Journal of Cell Biology, 2020):

B1: FIP200NTD (domain or fragment, human, UniProt Q8TDY2 1-640, looked up)
chain: MKLYVFLVNTGTTLTFDTELTVQTVADLKHAIQSKYKIAIQHQVLVVNGGECMAADRRVCTYSAGTDTNPIFLFNKEMILCDRPPAIPKTTFSTENDMEIKVEESLMMPAVFHTVASRTQLALEMYEVAKKLCSFCEGLVHDEHLQHQGWAAIMANLEDCSNSYQKLLFKFESIYSNYLQSIEDIKLKLTHLGTAVSVMAKIPLLECLTRHSYRECLGRLDSLPEHEDSEKAEMKRSTELVLSPDMPRTTNESLLTSFPKSVEHVSPDTADAESGKEIRESCQSTVHQQDETTIDTKDGDLPFFNVSLLDWINVQDRPNDVESLVRKCFDSMSRLDPRIIRPFIAECRQTIAKLDNQNMKAIKGLEDRLYALDQMIASCGRLVNEQKELAQGFLANQKRAENLKDASVLPDLCLSHANQLMIMLQNHRKLLDIKQKCTTAKQELANNLHVRLKWCCFVMLHADQDGEKLQALLRLVIELLERVKIVEALSTVPQMYCLAVVEVVRRKMFIKHYREWAGALVKDGKRLYEAEKSKRESFGKLFRKSFLRNRLFRGLDSWPPSFCTQKPRKFDCELPDISLKDLQFLQSFCPSEVQPFLRVPLLCDFEPLHQHVLALHNLVKAAQSLDEMSQTITDLLSEQK
notes: FIP200 (RB1CC1), human, N-terminal domain, residues 1-640 of 1,594; the form printed without a tag in NSEM, MALS, HDX-MS and cryo-EM samples; also called FIP200 N-terminal domain; untagged FIP200NTD
B2: MBP-FIP200NTD (domain or fragment, human, UniProt Q8TDY2 1-640, looked up)
chain: B1 chain
notes: FIP200 (RB1CC1), human, N-terminal domain, residues 1-640; also called N-terminal MBP–tagged FIP200NTD; not shown: MBP, N-terminal, kept
B3: FIP200NTD–MBP (domain or fragment, human, UniProt Q8TDY2 1-640, looked up)
chain: B1 chain
notes: FIP200 (RB1CC1), human, N-terminal domain, residues 1-640 of 1,594; also called FIP200(N-640)–MBP; FIP200-MBP; not shown: GST, N-terminal, cleaved; MBP, C-terminal, kept
B4: ATG13(363-C) (domain or fragment, human, UniProt O75143 363-517, looked up)
chain: HDVLETIFVRKVGAFVNKPINQVTLTSLDIPFAMFAPKNLELEDTDPMVNPPDSPETESPLQGSLHSDGSSGGSSGNTHDDFVMIDFKPAFSKDDILPMDLGTFYREFQNPPQLSSLSIDIGAQSMAEDLDSLPEKLAVHEKNVREFDAFVETLQ
notes: ATG13, human, residue 363 to the C terminus
B5: MBP-ATG13MR (domain or fragment, human, UniProt O75143 363-460, looked up)
chain: HDVLETIFVRKVGAFVNKPINQVTLTSLDIPFAMFAPKNLELEDTDPMVNPPDSPETESPLQGSLHSDGSSGGSSGNTHDDFVMIDFKPAFSKDDILP
notes: ATG13, human, middle region, residues 363-460; not shown: MBP, N-terminal, kept

Key:
[1] = target: the molecule itself; assay: SEC-MALS; Superose 6 Increase 10/300 GL; 50 mM Tris, 150 mM NaCl, 1 mM TCEP, pH 7.8; sample ~6–10 µM, 100 µl injected
[2] = target: the molecule itself; assay: negative stain EM; purified samples diluted to ~50–200 nM, uranyl acetate stain, 2D classification; MBP tags used to mark positions
FIP200NTD [3] = target: B1; assay: SEC-MALS; Superose 6 Increase 10/300 GL; 50 mM Tris, 150 mM NaCl, 1 mM TCEP, pH 7.8; sample ~6–10 µM, 100 µl injected; details: both partners purified
FIP200NTD [4] = target: B1; assay: negative stain EM; purified samples diluted to ~50–200 nM, uranyl acetate stain, 2D classification; MBP tags used to mark positions; details: both partners purified

Binder	stoichiometry N [2]	stoichiometry N (FIP200NTD [3])	further results
B1	–	–	stoichiometry N [1]: 2
B2	2	–	–
B3	2	–	–
B4	–	0.5 molecules per molecule of FIP200NTD (2:1 FIP200NTD:binder)	–
B5	–	0.5 molecules per molecule of FIP200NTD (2:1 FIP200NTD:binder)	stoichiometry N (FIP200NTD [4]): 1 per FIP200NTD dimer
